Results: US20150239980A1 (NEOTOPE BOSCIENCES, published 2015)

T1: recombinant hMCAM-His (human, UniProt P43121 24-559)
T1 construct: not shown: His tag
T1 chain: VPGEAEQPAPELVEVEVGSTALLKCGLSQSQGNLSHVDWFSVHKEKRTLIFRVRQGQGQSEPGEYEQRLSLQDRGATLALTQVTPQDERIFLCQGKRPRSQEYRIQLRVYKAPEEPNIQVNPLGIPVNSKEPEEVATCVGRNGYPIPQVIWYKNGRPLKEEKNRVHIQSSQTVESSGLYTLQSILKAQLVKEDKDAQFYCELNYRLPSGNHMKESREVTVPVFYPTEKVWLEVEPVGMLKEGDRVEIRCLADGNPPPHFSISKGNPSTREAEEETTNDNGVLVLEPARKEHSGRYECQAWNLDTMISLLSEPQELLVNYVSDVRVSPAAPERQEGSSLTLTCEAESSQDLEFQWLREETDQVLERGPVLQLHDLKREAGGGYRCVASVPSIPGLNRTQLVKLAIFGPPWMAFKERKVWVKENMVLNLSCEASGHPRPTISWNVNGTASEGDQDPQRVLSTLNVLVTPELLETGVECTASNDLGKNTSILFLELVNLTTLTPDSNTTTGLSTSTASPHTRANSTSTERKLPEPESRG

T2: human MCAM (melanoma cell adhesion molecule) expressed on transfected CHO cells (human, UniProt P43121 24-646)
T2 construct: also called hMCAM; CD146
T2 chain: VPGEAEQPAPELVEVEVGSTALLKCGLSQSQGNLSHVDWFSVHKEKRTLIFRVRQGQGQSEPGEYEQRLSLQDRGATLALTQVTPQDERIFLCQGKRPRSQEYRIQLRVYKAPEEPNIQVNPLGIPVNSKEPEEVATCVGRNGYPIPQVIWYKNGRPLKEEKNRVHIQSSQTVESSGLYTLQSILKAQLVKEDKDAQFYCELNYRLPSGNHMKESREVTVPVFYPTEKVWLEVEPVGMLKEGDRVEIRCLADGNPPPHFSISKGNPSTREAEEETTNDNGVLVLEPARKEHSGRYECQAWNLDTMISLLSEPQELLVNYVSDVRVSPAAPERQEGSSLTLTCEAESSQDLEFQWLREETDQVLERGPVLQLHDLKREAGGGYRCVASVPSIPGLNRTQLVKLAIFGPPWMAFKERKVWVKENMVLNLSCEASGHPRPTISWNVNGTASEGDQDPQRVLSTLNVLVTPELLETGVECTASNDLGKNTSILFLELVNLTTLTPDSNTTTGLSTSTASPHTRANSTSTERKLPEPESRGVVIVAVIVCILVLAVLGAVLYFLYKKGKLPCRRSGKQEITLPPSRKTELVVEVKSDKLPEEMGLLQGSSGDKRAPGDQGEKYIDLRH

T3: murine MCAM-Fc fusion protein (mouse, UniProt Q8R2Y2 24-563)
T3 construct: extracellular domain; produced in CHO cells; also called mouse MCAM-Fc; mouse MCAMhFc; not shown: fused to human IgG
T3 sequence (looked up): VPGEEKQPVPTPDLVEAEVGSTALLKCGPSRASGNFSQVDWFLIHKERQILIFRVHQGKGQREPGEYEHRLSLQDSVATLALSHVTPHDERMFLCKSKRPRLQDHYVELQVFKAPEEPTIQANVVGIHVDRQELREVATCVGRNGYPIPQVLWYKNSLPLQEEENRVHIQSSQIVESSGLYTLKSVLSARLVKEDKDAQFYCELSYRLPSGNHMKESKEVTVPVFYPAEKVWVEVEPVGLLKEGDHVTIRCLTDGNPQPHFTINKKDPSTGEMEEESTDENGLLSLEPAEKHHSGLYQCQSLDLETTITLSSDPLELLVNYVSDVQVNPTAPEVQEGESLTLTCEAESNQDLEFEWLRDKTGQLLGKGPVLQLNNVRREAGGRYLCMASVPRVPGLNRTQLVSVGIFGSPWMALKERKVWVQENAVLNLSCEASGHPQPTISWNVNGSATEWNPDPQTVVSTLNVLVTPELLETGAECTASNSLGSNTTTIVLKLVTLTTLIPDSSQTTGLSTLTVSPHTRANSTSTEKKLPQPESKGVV

T4: Ig2 domain (mouse, UniProt Q8R2Y2)
T4 construct: isolated domain 2; also called Murine MCAM domain 2 (Ig2) with human IgG Fc tag
T4 sequence (Fc fusion chain, looked up): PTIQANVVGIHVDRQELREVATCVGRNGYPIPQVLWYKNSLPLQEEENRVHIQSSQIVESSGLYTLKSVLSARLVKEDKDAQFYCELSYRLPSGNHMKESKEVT

T5: mouse MCAM expressed on transfected CHO cells (mouse, UniProt Q8R2Y2 24-648)
T5 construct: whole, on cells; also called murine MCAM
T5 sequence (looked up): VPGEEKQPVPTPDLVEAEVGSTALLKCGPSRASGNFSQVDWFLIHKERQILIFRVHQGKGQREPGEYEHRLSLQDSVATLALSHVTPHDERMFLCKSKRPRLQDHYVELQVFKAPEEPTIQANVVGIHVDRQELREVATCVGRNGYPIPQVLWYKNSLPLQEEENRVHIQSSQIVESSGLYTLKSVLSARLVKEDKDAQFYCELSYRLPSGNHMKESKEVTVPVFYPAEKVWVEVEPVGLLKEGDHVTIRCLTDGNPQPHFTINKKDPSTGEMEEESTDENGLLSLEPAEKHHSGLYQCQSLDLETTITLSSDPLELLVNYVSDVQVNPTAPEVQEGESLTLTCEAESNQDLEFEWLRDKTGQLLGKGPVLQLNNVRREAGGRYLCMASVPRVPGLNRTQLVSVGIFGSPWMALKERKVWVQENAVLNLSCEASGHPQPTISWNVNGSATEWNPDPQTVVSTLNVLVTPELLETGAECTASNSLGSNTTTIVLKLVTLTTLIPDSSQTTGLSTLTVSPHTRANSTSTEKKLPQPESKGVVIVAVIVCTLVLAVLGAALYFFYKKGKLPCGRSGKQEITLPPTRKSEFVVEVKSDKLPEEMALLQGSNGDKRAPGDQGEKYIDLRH


Tests used:
recombinant hMCAM-His [1] = target: T1, recombinant hMCAM-His; assay: competitive ELISA on hMCAM-His, competitor biotinylated rodent or chimeric 2120; Expt. #2; vs rodent 2120
Description: (§1) ELISA plates were coated with recombinant hMCAM-His, and blocked with casein buffer to prevent non-specific binding. Biotinylated rodent or chimeric antibody was added at a subsaturating concentration, in the presence or absence of 3× increasing concentrations of unlabeled competitor (humanized antibody, rodent, or chimeric). After washing to remove unbound antibody, streptavidin HRP was added to allow detection of the biotinylated antibody. The ELISA was developed with TMB substrate and the OD450 was measured. The IC50 of the unlabeled competitor was determined using the GraphPad Prism5 software.

[2] = target: T2, human MCAM (melanoma cell adhesion …); assay: laminin/FACS on hMCAM CHO cells, competitor laminin 411; Expt#2; vs rodent 2120
Description: (§2) Following incubation for 30-45 minutes, the cells were washed and anti-laminin conjugated to AF650 (NovusBio) was added to detect the bound laminin. The cells were run on a flow cytometer to measure the laminin binding signal.

recombinant hMCAM-His [3] = target: T1, recombinant hMCAM-His; assay: competitive ELISA on hMCAM-His, competitor biotinylated rodent or chimeric 2120; vs rodent 2120
Description: as §1

recombinant hMCAM-His [4] = target: T1, recombinant hMCAM-His; assay: ForteBio Octet Red, hMCAM-His analyte; Expt. #1; vs rodent 2120
Description: (§3) The affinities were measured using the ForteBio Octet Red. Anti-human Fc sensors were used to capture the humanized antibodies, and several concentrations of hMCAMHis analyte were used to determine the affinity using a 1:1 fitting model.

recombinant hMCAM-His [5] = target: T1, recombinant hMCAM-His; assay: competitive ELISA on hMCAM-His, competitor biotinylated rodent or chimeric 2120; Expt. #1; vs rodent 2120
Description: as §1

recombinant hMCAM-His [6] = target: T1, recombinant hMCAM-His; assay: ForteBio Octet Red, hMCAM-His analyte; Expt. #2; vs rodent 2120
Description: as §3

recombinant hMCAM-His [7] = target: T1, recombinant hMCAM-His; assay: summary of ForteBio, hMCAM-His; vs rodent 2120
Description: as §3

recombinant hMCAM-His [8] = target: T1, recombinant hMCAM-His; assay: ForteBio Octet Red, hMCAM-His analyte; Forte column 1; vs rodent 2120
Description: as §3

recombinant hMCAM-His [9] = target: T1, recombinant hMCAM-His; assay: ForteBio Octet Red, hMCAM-His analyte; Forte column 2; vs rodent 2120
Description: as §3

[10] = target: T2, human MCAM (melanoma cell adhesion …); assay: laminin/FACS on hMCAM CHO cells, competitor laminin 411; Expt#1; vs rodent 2120
Description: as §2

[11] = target: T3, murine MCAM-Fc fusion protein; assay: ForteBio Octet Red, anti-human IgG Fc (AHC) biosensors loaded with mouse MCAM-hFc proteins (5 ug/ml), dipped into antibody (5 ug/ml) or SP2 media
From the text: (§4) The following protocol was used: ForteBio Domain Mapping Protocol. ForteBio anti-human IgG Fc biosensors were used to immobilize various mouse MCAMhFc domains including full length mouse MCAMhFc protein on to biosensor surface. These sensors were dipped into either clone 15 or 17 MCAM specific antibody for detection of binding to these domains or full length protein. After loading these samples into a black 96 well plate, the Octet Red was programmed as follows: 60 seconds for baseline #1; 180 seconds for loading various domains; 60 seconds for baseline #2; 180 seconds for association of antibody to domain; and 240 seconds for dissociation of antibody from domain.
(§5) 1. Mouse MCAMhFc final concentration @ 5 ug/ml [0466] 2. Antibody clone 15 or 17 @ 5 ug/ml [0467] 3. ForteBio anti-human IgG Fc Capture (AHC) biosensors for kinetics experiments, cat#18-5060 [0468] 4. […] 5. ForteBio Octet Red machine [0470] 6. Fresh tissue culture medium, DMEM with 20% FCS, was used as buffer for dilution
(§6) For FIGS. 10A-B, clones 15 and 17 were tested against the following protein samples (all have human IgG Fc tag): Murine MCAM; Human Fc full length protein; Murine MCAM domain 1 (Ig1); Murine MCAM domain 2 (Ig2); and Murine MCAM domain 1 and 2 (Ig1-2A).

Ig2 domain = target: T4, Ig2 domain; assay: as above
From the text: as §4, §5, §6

[12] = target: T5, mouse MCAM expressed on transfected CHO …; assay: flow cytometry, mouse MCAM transfected cells mixed with CFSE-labelled untransfected cells
Description: For the generation of antibodies capable of binding to murine MCAM, MCAM-Fc was generated by fusing the extracellular domain of murine MCAM to human IgG and produced in CHO cells using standard techniques. Lou/M rats were immunized with 100 μg of MCAM-Fc protein in CFA (1:1 volume). Rats were boosted two times at two week intervals with MCAM-Fc protein in incomplete Freund's adjuvant (IFA) (1:1 volume). Hybridomas were generated from immunized rats using standard protocols and clones were selected by Clonepix. CHO cells were transfected with the full length murine MCAM gene and selected for stable expression using neomycin and standard techniques. Parental CHO cells (MCAM negative) were fluorescently labeled with carboxyfluorescein succinimidyl ester (CFSE) using standard techniques and mixed at a 1:1 ratio with unlabeled MCAM transfected CHO cells. Hybridoma supernatants were incubated with this mixture of cells for 30 minutes and binding of potential MCAM specific antibodies was detected with a fluorescently labeled anti-rat secondary antibody (Jackson Immuno) by flow cytometry.

| Binder | fold over rodent (competitive ELISA) (recombinant hMCAM-His [1]) [fold] | fold over rodent (blocking, laminin/FACS) [2] [fold] | fold over rodent (competitive ELISA) (recombinant hMCAM-His [3]) [fold] | fold over rodent (Forte affinity) (recombinant hMCAM-His [4]) [fold] | fold over rodent (competitive ELISA) (recombinant hMCAM-His [5]) [fold] | fold over rodent (Forte affinity) (recombinant hMCAM-His [6]) [fold] | fold reduction in affinity as measured by ForteBio (recombinant hMCAM-His [7]) [fold] | fold over rodent (Forte affinity) (recombinant hMCAM-His [8]) [fold] | fold over rodent (Forte affinity) (recombinant hMCAM-His [9]) [fold] | fold over rodent (blocking, laminin/FACS) [10] [fold] | binding result [11] | binding result (Ig2 domain) | binding result [12] |
| --- | --- | --- | --- | --- | --- | --- | --- | --- | --- | --- | --- | --- | --- |
| h2120_VH1 + h2120_VL3 (antibody, human IgG1, V domains shown) VH: QVTLKESGPVLVKPTETLTLTCTVSGFSLTSNGVSWVRQPPGKALEWIAAISSGGTTYYNSAFKSRLTISRDTSKSQVVLTMTNMDPVDTATYYCARRYGYGWYFDFWGQGTLVTVSS VL: DIQMTQSPSSLSASVGDRVTINCKASQNIYNSLAWYQQKPGKAPKVLIFNANSLQTGIPSRFSGSGSGTDFTLTISSLQPEDFATYYCQQFYSGYTFGQGTKLEIK | 2.42 | 2.8 | 1.8 | 5.64 | 2.23 | 6.21 | > 5 | 5.9 | 5.8 | 1.7 |  |  |  |
| h2120_VH2 + h2120_VL3 (antibody, human IgG1, V domains shown) VH: QVTLKESGPVLVKPTETLTLTCTVSGFSLTSNGVSWVRQPPGKALEWIAAISSGGTTYYNSAFKSRLSISRDTSKSQVVLTMTNMDPVDTATYYCARRYGYGWYFDFWGQGTLVTVSS VL: DIQMTQSPSSLSASVGDRVTINCKASQNIYNSLAWYQQKPGKAPKVLIFNANSLQTGIPSRFSGSGSGTDFTLTISSLQPEDFATYYCQQFYSGYTFGQGTKLEIK | 2.62 |  |  | 6.57 | 1.93 | 6.43 | > 5 |  |  |  |  |  |  |
| anti-MCAM monoclonal antibody clone 17 (antibody, V domains shown, rat monoclonal raised against murine MCAM-Fc; also called anti-MCAM clone 17) VH: EVQLVESGGGLVQPGRSLKLSCAASGFTFSNYYMAWVRQAPTKGLEWVASISFEGNRNHYGDSVKGRITISRDNAKSTLYLQMTSLRPEDTATYYCARHRGYSTNFYHDVLDAWGQGALVTVSS VL: DVQMTQSPSYLATSPGESVSISCKASKNIDTYLAWYQEKPGKTNKLLIYSGSTLQSGTPSRFSGSGSGTDFTLTIRNLESEDFAVYYCQQHNEYPLTFGSGTKLEIKR |  |  |  |  |  |  |  |  |  |  | binds | no binding (tested: 5 ug/ml) | binds |
